From publication PMC6609762

B1: alpha 2‐antiplasmin (natural protein)
chain: NQEQVSPLTLLKLGNQEPGGQTALKSPPGVCSRDPTPEQTHRLARAMMAFTADLFSLVAQTSTCPNLILSPLSVALALSHLALGAQNHTLQRLQQVLHAGSGPCLPHLLSRLCQDLGPGAFRLAARMYLQKGFPIKEDFLEQSEQLFGAKPVSLTGKQEDDLANINQWVKEATEGKIQEFLSGLPEDTVLLLLNAIHFQGFWRNKFDPSLTQRDSFHLDEQFTVPVEMMQARTYPLRWFLLEQPEIQVAHFPFKNNMSFVVLVPTHFEWNVSQVLANLSWDTLHPPLVWERPTKVRLPKLYLKHQMDLVATLSQLGLQELFQAPDLRGISEQSLVVSGVQHQSTLELSEVGVEAAAATSIAMSRMSLSSFSVNRPFLFFIFEDTTGLPLFVGSVRNPNPSAPRELKEQQDSPGNKDFLQSLKGFPRGDKLFGPDLKLVPPMEEDYPQFGSPK

Columns and labels:
[1] = molecular target: SKC1 (2aG88‐2b_(ALAB)‐2aG88)‐Pm complex (group G Streptococcus (GGS) strain G88 | group A Streptococcus (GAS) strain ALAB49 | human)
[2] = molecular target: SK2bALAB49‐Pm complex (streptokinase of group A Streptococcus ALAB49 with plasmin) (group A Streptococcus (GAS) strain ALAB49 | human)
[3] = molecular target: SK2aG88‐Pm complex (streptokinase of group G Streptococcus G88 with plasmin) (group G Streptococcus (GGS) strain G88 | human)
[4] = molecular target: SKC2 (2b_(ALAB)‐2aG88‐2b_(ALAB))‐Pm complex (group A Streptococcus (GAS) strain ALAB49 | group G Streptococcus (GGS) strain G88 | human)
[5] = molecular target: SKC1 (2aG88‐2b_(ALAB)‐2aG88)‐Pm complex (group G Streptococcus (GGS) strain G88 | group A Streptococcus (GAS) strain ALAB49 | human); remark: listed apart in the source
[6] = molecular target: SK2bALAB49‐Pm complex (streptokinase of group A Streptococcus ALAB49 with plasmin) (group A Streptococcus (GAS) strain ALAB49 | human); remark: listed apart in the source
[7] = molecular target: SK2aG88‐Pm complex (streptokinase of group G Streptococcus G88 with plasmin) (group G Streptococcus (GGS) strain G88 | human); remark: listed apart in the source
[8] = molecular target: SKC2 (2b_(ALAB)‐2aG88‐2b_(ALAB))‐Pm complex (group A Streptococcus (GAS) strain ALAB49 | group G Streptococcus (GGS) strain G88 | human); remark: listed apart in the source

Molecule	K m of the proteolytic activity (substrate affinity): 100 nM SK, Pg 0.3–5.0 µM as substrate, 0.1 mM S2251, absorbance at 405 nM [1]	K m of the proteolytic activity (substrate affinity): 100 nM SK, Pg 0.3–5.0 µM as substrate, 0.1 mM S2251, absorbance at 405 nM [2]	K m of the proteolytic activity (substrate affinity): 100 nM SK, Pg 0.3–5.0 µM as substrate, 0.1 mM S2251, absorbance at 405 nM [3]	K m of the proteolytic activity (substrate affinity): 100 nM SK, Pg 0.3–5.0 µM as substrate, 0.1 mM S2251, absorbance at 405 nM [4]	retained activity (S‐2251 hydrolysis) of the SK‐Pm complex (20 nM) after 15 min with α2‐AP 100–400 nM, relative to no inhibitor; value at 400 nM [5]	retained activity (S‐2251 hydrolysis) of the SK‐Pm complex (20 nM) after 15 min with α2‐AP 100–400 nM, relative to no inhibitor; value at 400 nM [6]	retained activity (S‐2251 hydrolysis) of the SK‐Pm complex (20 nM) after 15 min with α2‐AP 100–400 nM, relative to no inhibitor; value at 400 nM [7]	retained activity (S‐2251 hydrolysis) of the SK‐Pm complex (20 nM) after 15 min with α2‐AP 100–400 nM, relative to no inhibitor; value at 400 nM [8]
plasminogen (natural protein)	2.05 µM	7.92 µM	0.77 µM	3.45 µM	–	–	–	–
B1	–	–	–	–	50%	50%	80%	80%
